Experimental findings from paper PMC7846560, “A promiscuous ancestral enzyme´s structure unveils protein variable regions of the highly diverse metallo-β-lactamase family” (Communications Biology, 2021) are described below.

Substrate in this data set: O=[N+]([O-])c1ccc(OP(=O)(O)Oc2ccc([N+](=O)[O-])cc2)cc1
In words: purified protein. The format is biochemical, Ignicoccus hospitalis. The settings on record: pH 8, 90 °C, Ni2+ is the required metal (optimal metal conditions).

B1: Igni18 (Ignicoccus hospitalis KIN4/I) (protein)
chain: MTTVKLTYFGHSAFHVEVDGVGIAIDPWITNPLSKTTLEDYLKNFKTDLVVITHAHEDHIGDALEIMRRTGAKFFSIHEIYVDLTQKGFQGIGANIGGPAKLDDVAPGLGIALTPATHSSYDKGVPTGAIIFKDGKALVYHAGDTGLFAEMQFIGELYAPKVALLPIGGHYTMDIEQALLATKLLRPEVVVPMHYNTFPPIRADPNEFKQKVESAGLAKVRVMEPGETVTFEF
notes: homotrimer; 233 protein residues in the structure
Broadly, the Km is the concentration of substrate that gives half-maximal velocity. One may read the kcat as the number of substrate molecules converted per active site and unit of time at saturation. As for B1, the Km was 2.5 µM and the kcat came out at 6.72e-05 s⁻¹.
